Laboratory results published in patent publication US20030118557A1, “Axon repair” (priority 2001, published 2003).

System: dorsal root ganglion (DRG) neurons
Assay: short-term in vitro axon outgrowth assay with adult DRG neurons from transgenic mice
Format: cell-based
Details: for propensity / number of adult DRG neurons that extended axons: acute outgrowth assay, naive neurons; for extension of long (>300 μm) axons: naive adult DRG neurons from transgenic mice, short-term culture
Description: For the in vitro analysis, dorsal root ganglion (DRG) neurons from adult mice (>8 weeks) were dissociated essentially as described (Smith et al, J. Neurosci. 17:646-658 (1997)), and centrifuged at 200×g for 10 minutes through a cushion of 10% Ficoll in F14 culture medium to remove myelinated axons, cellular debris and non-neuronal cells. Neurons were resuspended in serum-free F14 medium containing N1 supplements, and plated on polylysine/laminin coated glass coverslips as described (Smith et al, J. Neurosci. 17:646-658 (1997)). Cells from 12-14 ganglia were plated in 12 wells of a standard 24-well plate. After 18-24 hours, cultures were fixed in 4% paraformaldehyde for 30 minutes at room temperature, washed and stained with antibodies to detect neurons expressing chicken CAP-23 (monoclonal antibody 15C1) and chicken GAP-43 (rabbit polyclonal antibody) (Caroni et al, J. Cell Biol. 136:679-692 (1997), Aigner et al, Cell 83:269-278 (1995)). To visualize all neuronal processes, cultures were stained with antibodies to β III tubulin (MAB 1637; Chemicon, Temecula, Calif.). Cells were viewed with a CCD camera and analyzed with IPLab 3.2 for the Macintosh (Scanalytics, Inc., Fairfax, Va.). Only neurons that stained strongly for the appropriate transgene(s) were analyzed. In control cultures, cells that stained strongly for the neuron-specific β III tubulin were analyzed. Cells with processes greater than 2 cell body diameters were scored. The length of the longest process for each cell, and the number of branches formed along that process, were then measured.
To identify genes responsible for the onset of axon regeneration, a short-term in vitro assay was used that monitors a transcription-dependent switch in axon extension induced in DRG neurons by axon injury (Smith et al, J. Neurosci. 17:646-658 (1997)). Neurons are removed from adult animals and cultured for 18-24 hours (Smith et al, J. Neurosci. 17:646-658 (1997)). Because the neurons are axotomized during this removal, they will eventually respond by inducing the full complement of growth-associated genes (Smith et al, J. Neurosci. 17:646-658 (1997)). Over the first 24 hours in culture, however, axon outgrowth depends only on genes that were already expressed in the neurons at the time of their removal from the animal (Smith et al, J. Neurosci. 17:646-658 (1997)). Neurons isolated from adult mice with no prior manipulation (naive neurons) supported a limited amount of outgrowth (Smith et al, J. Neurosci. 17:646-658 (1997)) and FIG. 1), characterized by the emergence of relatively short and highly branched axons (FIGS. 2 and 3). In contrast, neurons that had responded to a peripheral nerve lesion several days before removal were much more likely to extend axons (FIG. 1), and those axons were long and sparsely branched (FIGS. 2 and 3). This “elongating” growth resembles the extension required for nerve regeneration in vivo, and reflects the expression of genes induced by peripheral nerve injury (Smith et al, J. Neurosci. 17:646-658 (1997)).

Molecule | propensity / number of adult DRG neurons that extended axons | extension of long (>300 μm) axons | modal length of axons (naive adult DRG neurons, persistent transgene expression, 18-24 hours in culture)
GAP-43: growth-associated growth cone protein; chicken GAP-43 transgene expressed in mouse neurons under Thy-1 promoter (protein, UniProt P35001 1-246, looked up, transgene in mouse neurons, growth-associated growth cone protein; chicken GAP-43 transgene expressed in mouse neurons under Thy-1 promoter) Neuromodulin: MLCCMRRTKQVEKNEDGDQKIEQDGIKPEDKAHKAATKIQASFRGHITRKKLKGEKKADAPASESEAADKKDEGPAGGAAENKESEASAATEASAADSAQLDEGSKDSSVPAEEKKGNGAADTGSEQPAPQAATPAASSEEKPAAAAETESATKASTDNSPSLKADEAQDKEEPKQADVPAADTTATTTPAAEDATAKATAQPQMETVESSQTEEKTDAVEETKPTESAQQEEVKEEESKADQENA | increased the propensity | Only a small fraction | 100-150 μm
CAP-23: growth cone protein; chicken CAP-23 transgene expressed in mouse neurons under Thy-1 promoter (protein, UniProt P23614 2-244, looked up, transgene in mouse neurons, growth cone protein; chicken CAP-23 transgene expressed in mouse neurons under Thy-1 promoter) Brain acid soluble protein 1 …: GGKLSKKKKGYSVNDEKAKDKDKKAEGAATEEEETPKEAEDAQQTTETTEVKENNKEEKVEKDAQVSANKTEEKEGEKEKTVTQEEAQKAEPEKSEAVVDAKVEPQKNNEQAPKQEEPAAASAPAASSEAPKTSEPSSDAKASQPSEATAPSKADDKSKEEGEAKKTEAPATPAAQETKSEVAPASDSKPSSSEAAPSSKETVAATAAPSSTAKASDPSAPPEEAKPSEAPATNSDQTIAVQD | increased the number | did not elicit extension of long axons | 
